The results in this text go back to patent publication US20050113256A1, “Methods of reducing the nicotine content of tobacco plants and tobacco plants obtained thereby” (priority 2003, published 2005).

The subject of this test is tobacco leaves (Nicotiana tabacum). Kind of test: Treatment of individual tobacco leaves with test solutions, nicotine reduction. Format: in vivo. The conditions noted are these: incubated for about 3 days.

B1: Inactive GOX: heat treated glucose oxidase, rendered substantially inactive due to the application of heat (protein, UniProt P13006 17-605, looked up)
Glucose oxidase: LPHYIRSNGIEASLLTDPKDVSGRTVDYIIAGGGLTGLTTAARLTENPNISVLVIESGSYESDRGPIIEDLNAYGDIFGSSVDHAYETVELATNNQTALIRSGNGLGGSTLVNGGTWTRPHKAQVDSWETVFGNEGWNWDNVAAYSLQAERARAPNAKQIAAGHYFNASCHGVNGTVHAGPRDTGDDYSPIVKALMSAVEDRGVPTKKDFGCGDPHGVSMFPNTLHEDQVRSDAAREWLLPNYQRPNLQVLTGQYVGKVLLSQNGTTPRAVGVEFGTHKGNTHNVYAKHEVLLAAGSAVSPTILEYSGIGMKSILEPLGIDTVVDLPVGLNLQDQTTATVRSRITSAGAGQGQAAWFATFNETFGDYSEKAHELLNTKLEQWAEEAVARGGFHNTTALLIQYENYRDWIVNHNVAYSELFLDTAGVASFDVWDLLPFTRGYVHILDKDPYLHHFAYDPQYFLNELDLLGQAAATQLARNISNSGAMQTYFAGETIPGDNLAYDADLSAWTEYIPYHFRPNYHGVGTCSMMPKEMGGVVDNAARVYGVQGLRVIDGSIPPTQMSSHVMTVFYAMALKISDAILEDYASMQ
modifications: heat-inactivated
As to B1, the “Reduction of Nicotine” value came to 0.1 mg/g.
